Measurements: US20230174652A1 (Regeneron, published 2023)

Experiments:
Assay in all cases: cell-based or functional assay
human CD28 [1] = molecular target: T1, human CD28 (human, UniProt P10747 19-220)
human CD28 [2] = molecular target: T1, human CD28; remark: listed apart in the source
human CD28 [3] = molecular target: T1, human CD28; remark: listed apart in the source
human CD28 [4] = molecular target: T1, human CD28; remark: listed apart in the source

- EC50 [M], luciferase activity, reporter T-cells + HEK293/hCD20, 200 pM REGN2281 (αCD20 x αCD3) (human CD28 [1]): 2.63e-10 M
- EC50 [M], luciferase activity, reporter T-cells + HEK293/hCD20/hCD22, 200 pM REGN2281 (αCD20 x αCD3) (human CD28 [1]): 7.7e-11 M
- EC50 [M], luciferase activity, reporter T-cells + Raji/CD80 and CD86 negative, 200 pM REGN2281 (αCD20 x αCD3) (human CD28 [1]): 4.33e-10 M
- Max RLU, luciferase activity, reporter T-cells + HEK293/hCD20, 200 pM REGN2281 (αCD20 x αCD3) (human CD28 [1]): 409000 RLU
- Max RLU, luciferase activity, reporter T-cells + HEK293/hCD20/hCD22, 200 pM REGN2281 (αCD20 x αCD3) (human CD28 [1]): 171000 RLU
- Max RLU, luciferase activity, reporter T-cells + Raji/CD80 and CD86 negative, 200 pM REGN2281 (αCD20 x αCD3) (human CD28 [1]): 569000 RLU
- EC50 [M], IL-2 release, primary human CD4+ T-cells + Raji/CD80 and CD86 negative, 2 nM REGN1945 (isotype control) (human CD28 [2]): 1.11e-10 M
- Max RFU, IL-2 release, primary human CD4+ T-cells + HEK293/hCD20, 2 nM REGN1945 (isotype control) (human CD28 [2]): 2290 RFU
- Max RFU, IL-2 release, primary human CD4+ T-cells + HEK293/hCD20/hCD22, 2 nM REGN1945 (isotype control) (human CD28 [2]): 2950 RFU
- Max RFU, IL-2 release, primary human CD4+ T-cells + Raji/CD80 and CD86 negative, 2 nM REGN1945 (isotype control) (human CD28 [2]): 49500 RFU
- EC50 [M], IL-2 release, primary human CD4+ T-cells + HEK293/hCD20, 2 nM REGN2281 (αCD20 x αCD3) (human CD28 [3]): 2.23e-09 M
- EC50 [M], IL-2 release, primary human CD4+ T-cells + Raji/CD80 and CD86 negative, 2 nM REGN2281 (αCD20 x αCD3) (human CD28 [3]): 4.51e-11 M
- Max RFU, IL-2 release, primary human CD4+ T-cells + HEK293/hCD20, 2 nM REGN2281 (αCD20 x αCD3) (human CD28 [3]): 68900 RFU
- Max RFU, IL-2 release, primary human CD4+ T-cells + HEK293/hCD20/hCD22, 2 nM REGN2281 (αCD20 x αCD3) (human CD28 [3]): 57400 RFU
- Max RFU, IL-2 release, primary human CD4+ T-cells + Raji/CD80 and CD86 negative, 2 nM REGN2281 (αCD20 x αCD3) (human CD28 [3]): 249000 RFU
- EC50 [M], luciferase activity, reporter T-cells + HEK293/hCD20, 200 pM REGN1945 (no TCR stimulation) (human CD28 [4]): 6.23e-09 M
- EC50 [M], luciferase activity, reporter T-cells + HEK293/hCD20/hCD22, 200 pM REGN1945 (no TCR stimulation) (human CD28 [4]): 8.45e-09 M
- EC50 [M], luciferase activity, reporter T-cells + Raji/CD80 and CD86 negative, 200 pM REGN1945 (no TCR stimulation) (human CD28 [4]): 7.88e-09 M
- Max RLU, luciferase activity, reporter T-cells + HEK293/hCD20, 200 pM REGN1945 (no TCR stimulation) (human CD28 [4]): 25000 RLU
- Max RLU, luciferase activity, reporter T-cells + HEK293/hCD20/hCD22, 200 pM REGN1945 (no TCR stimulation) (human CD28 [4]): 25100 RLU
- Max RLU, luciferase activity, reporter T-cells + Raji/CD80 and CD86 negative, 200 pM REGN1945 (no TCR stimulation) (human CD28 [4]): 33200 RLU
B1: REGN5705 (antibody, V domains shown)
VH: QVQLQESGPGLVKPSETLSLTCTVSGGSISSYYWSWIRQPPGKGLEWIGYIYYSGITHYNPSLKSRVTISVDTSKIQFSLKLSSVTAADTAVYYCARWGVRRDYYYYGMDVWGQGTTVTVSS
VL: not shown
